Measured values reported in the supplement of paper PMC11246515.
± gives the standard deviation of the averaged measurements.

Assay: total protein half-life in vivo (active degradation + dilution); higher = more stable protein
[1] = wild type E. coli NCM3722, growth: C-lim chemostat, doubling time 3 h
[2] = wild type E. coli NCM3722, growth: N-lim chemostat, doubling time 6 h
[3] = E. coli NCM3722 delta-clpP delta-lon delta-hslV, growth: N-lim chemostat, doubling time 6 h
[4] = E. coli NCM3722 delta-hslV, growth: N-lim chemostat, doubling time 6 h
[5] = E. coli NCM3722 delta-lon, growth: N-lim chemostat, doubling time 6 h
[6] = E. coli NCM3722 delta-smpB, growth: N-lim chemostat, doubling time 6 h
[7] = wild type E. coli NCM3722, growth: C-lim chemostat, doubling time 12 h
[8] = wild type E. coli NCM3722, growth: N-lim chemostat, doubling time 12 h
[9] = wild type E. coli NCM3722, growth: P-lim chemostat, doubling time 6 h
[10] = wild type E. coli NCM3722, growth: P-lim chemostat, doubling time 12 h
[11] = E. coli NCM3722 delta-clpP, growth: N-lim chemostat, doubling time 6 h
[12] = wild type E. coli NCM3722, growth: C-lim chemostat, doubling time 6 h

For “MKNNSQLLMPREKMLKFGISALTDVELLALFLRTGTRGKDVLTLAKEMLENFGSLYGLLTSEYEQFSGVHGIGVAKFAQLKGIAELARRYYNVRMREESPLLSPEMTREFLQSQLTGEEREIFMVIFLDSQHRVITHRRLFSGTLNHVEVHPREIIREAIKINASALILAHNHPSGCAEPSKADKLITERIIKSCQFMDLRVLDHIVIGRGEYVSFAERGWI”, the “total protein half-life in vivo” value [1] was 3.03 h and the “total protein half-life in vivo” value [2] was 4.31 h.
For “MKIDLNADLGEGCASDAELLTLVSSANIACGFHAGDAQIMQACVREAIKNGVAIGAHPSFPDRENFGRSAMQLPPETVYAQTLYQIGALATIARAQGGVMRHVKPHGMLYNQAAKEAQLADAIARAVYACDPALILVGLAGSELIRAGKQYGLTTREEVFADRGYQADGSLVPRSQSGALIENEEQALAQTLEMVQHGRVKSITGEWATVAAQTVCLHGDGEHALAFARRLRSAFAEKGIVVAA”, the “total protein half-life in vivo” value [3] was 5 ± 0.5 h, the “total protein half-life in vivo” value [4] was 3.66 h and the “total protein half-life in vivo” value [5] was 5.55 ± 2 h. For the same sequence, the “total protein half-life in vivo” value [6] was 3.12 ± 0.19 h, the “total protein half-life in vivo” value [1] was 2.4 ± 0.35 h and the “total protein half-life in vivo” value [7] was 7.69 ± 0.61 h. For the same sequence, the “total protein half-life in vivo” value [2] was 3.911 ± 0.035 h, the “total protein half-life in vivo” value [8] was 5.79 ± 0.9 h and the “total protein half-life in vivo” value [9] was 4.55 ± 0.18 h. For the same sequence, the “total protein half-life in vivo” value [10] was 7.81 ± 1.7 h.
In the case of “MAKEDNIEMQGTVLETLPNTMFRVELENGHVVTAHISGKMRKNYIRILTGDKVTVELTPYDLSKGRIVFRSR”, the “total protein half-life in vivo” value [3] is reported as 5.28 ± 0.3 h, the “total protein half-life in vivo” value [11] is reported as 4.92 ± 1.1 h and the “total protein half-life in vivo” value [4] is reported as 4.49 ± 0.57 h. The “total protein half-life in vivo” value [5] was 4.94 ± 0.23 h, the “total protein half-life in vivo” value [6] was 5.4 ± 0.28 h and the “total protein half-life in vivo” value [12] was 5.34 ± 0.62 h. For the same sequence, the “total protein half-life in vivo” value [7] was 8.41 ± 0.61 h, the “total protein half-life in vivo” value [2] was 4.58 h and the “total protein half-life in vivo” value [8] was 8.98 ± 0.12 h. The “total protein half-life in vivo” value [9] was 4.93 ± 1.6 h and the “total protein half-life in vivo” value [10] was 9.85 ± 0.75 h.
For “MTKKLHIKTWGCQMNEYDSSKMADLLDATHGYQLTDVAEEADVLLLNTCSIREKAQEKVFHQLGRWKLLKEKNPDLIIGVGGCVASQEGEHIRQRAHYVDIIFGPQTLHRLPEMINSVRGDRSPVVDISFPEIEKFDRLPEPRAEGPTAFVSIMEGCNKYCTYCVVPYTRGEEVSRPSDDILFEIAQLAAQGVREVNLLGQNVNAWRGENYDGTTGSFADLLRLVAAIDGIDRIRFTTSHPIEFTDDIIEVYRDTPELVSFLHLPVQSGSDRILNLMGRTHTALEYKAIIRKLRAARPDIQISSDFIVGFPGETTEDFEKTMKLIADVNFDMSYSFIFSARPGTPAADMVDDVPEEEKKQRLYILQERINQQAMAWSRRMLGTTQRILVEGTSRKSIMELSGRTENNRVVNFEGTPDMIGKFVDVEITDVYPNSLRGKVVRTEDEMGLRVAETPESVIARTRKENDLGVGYYQP [P0AEI1]”, the “total protein half-life in vivo” value [3] was 4.82 ± 0.13 h, the “total protein half-life in vivo” value [11] was 2.04 ± 0.24 h and the “total protein half-life in vivo” value [4] was 1.57 ± 0.14 h. The “total protein half-life in vivo” value [5] was 2.12 ± 0.29 h, the “total protein half-life in vivo” value [6] was 1.54 ± 0.098 h and the “total protein half-life in vivo” value [1] was 1.5 ± 0.018 h. The “total protein half-life in vivo” value [12] was 2.18 ± 0.19 h, the “total protein half-life in vivo” value [7] was 2.62 ± 0.22 h and the “total protein half-life in vivo” value [2] was 1.632 ± 0.015 h. The “total protein half-life in vivo” value [8] was 2.12 ± 0.027 h, the “total protein half-life in vivo” value [9] was 1.97 ± 0.35 h and the “total protein half-life in vivo” value [10] was 3.75 ± 0.39 h.
For “MTTVYTLVSWLAILGYWLLIAGVTLRILMKRRAVPSAMAWLLIIYILPLVGIIAYLAVGELHLGKRRAERARAMWPSTAKWLNDLKACKHIFAEENSSVAAPLFKLCERRQGIAGVKGNQLQLMTESDDVMQALIRDIQLARHNIEMVFYIWQPGGMADQVAESLMAAARRGIHCRLMLDSAGSVAFFRSPWPELMRNAGIEVVEALKVNLMRVFLRRMDLRQHRKMIMIDNYIAYTGSMNMVDPRYFKQDAGVGQWIDLMARMEGPIATAMGIIYSCDWEIETGKRILPPPPDVNIMPFEQASGHTIHTIASGPGFPEDLIHQALLTAAYSAREYLIMTTPYFVPSDDLLHAICTAAQRGVDVSIILPRKNDSMLVGWASRAFFTELLAAGVKIYQFEGGLLHTKSVLVDGELSLVGTVNLDMRSLWLNFEITLAIDDKGFGADLAAVQDDYISRSRLLDARLWLKRPLWQRVAERLFYFFSPLL [P0A6H8]”, the “total protein half-life in vivo” value [3] was 6.74 ± 0.71 h, the “total protein half-life in vivo” value [4] was 7.06 ± 0.36 h and the “total protein half-life in vivo” value [5] was 6.87 ± 0.85 h. The “total protein half-life in vivo” value [6] was 6.25 ± 0.099 h, the “total protein half-life in vivo” value [1] was 3.38 ± 0.26 h and the “total protein half-life in vivo” value [12] was 6.636 ± 0.027 h. For the same sequence, the “total protein half-life in vivo” value [7] was 13.5 ± 0.82 h, the “total protein half-life in vivo” value [2] was 6.16 ± 0.22 h and the “total protein half-life in vivo” value [8] was 13.1 ± 1.4 h. The “total protein half-life in vivo” value [9] was 6.275 ± 0.026 h and the “total protein half-life in vivo” value [10] was 13.1 ± 0.13 h.
In the case of “MRRELAIEFSRVTESAALAGYKWLGRGDKNTADGAAVNAMRIMLNQVNIDGTIVIGEGEIDEAPMLYIGEKVGTGRGDAVDIAVDPIEGTRMTAMGQANALAVLAVGDKGCFLNAPDMYMEKLIVGPGAKGTIDLNLPLADNLRNVAAALGKPLSELTVTILAKPRHDAVIAEMQQLGVRVFAIPDGDVAASILTCMPDSEVDVLYGIGGAPEGVVSAAVIRALDGDMNGRLLARHDVKGDNEENRRIGEQELARCKAMGIEAGKVLRLGDMARSDNVIFSATGITKGDLLEGISRKGNIATTETLLIRGKSRTIRRIQSIHYLDRKDPEMQVHIL [P0A9C9]”, the “total protein half-life in vivo” value [11] is reported as 4.69 ± 0.43 h, the “total protein half-life in vivo” value [4] is reported as 4.84 ± 0.68 h and the “total protein half-life in vivo” value [5] is reported as 4.309 ± 0.04 h. For the same sequence, the “total protein half-life in vivo” value [6] was 4.27 ± 0.27 h, the “total protein half-life in vivo” value [1] was 3.593 ± 0.019 h and the “total protein half-life in vivo” value [12] was 5.39 ± 0.19 h. For the same sequence, the “total protein half-life in vivo” value [7] was 9.84 ± 0.62 h, the “total protein half-life in vivo” value [2] was 4.51 ± 0.52 h and the “total protein half-life in vivo” value [8] was 7.05 ± 0.25 h. The “total protein half-life in vivo” value [9] was 5.75 ± 0.21 h and the “total protein half-life in vivo” value [10] was 12 ± 1.2 h.
